From PMC11344771

Key:
[1] = molecular target: BR-GBD fused to GFP (BR-GBD_(GFP-His)) (Rattus norvegicus) (UniProt O08816); assay: pull-down; GFP-Trap agarose, BR-GBD_(GFP-His) as bait, equimolar SemDΔAPHHis and Cdc42_(GppNHp) added simultaneously; immunoblot, normalised Elution:FT ratio
[2] = molecular target: N-WASP BR-GBD_(142-273) (Rattus norvegicus) (UniProt O08816); assay: SEC-SAXS; Superdex200 increase 10/300 GL, PBS pH 8.5 + 3 % glycerol, 20 °C; 8 mg/ml SemDΔAPH, 10 mg/ml BR-GBD, 8 mg/ml SemDΔAPH + BR-GBD, 3.3 mg/l SemDΔAPH + SNX9-SH3
[3] = molecular target: BR-GBD fused to GFP (BR-GBD_(GFP-His)) (Rattus norvegicus) (UniProt O08816); assay: pull-down; GFP-Trap agarose, BR-GBD_(GFP-His) or GFP alone as bait, equimolar test protein, 5 min RT then 30 min 4 °C, washed 6x with 10 mM Tris-HCl, 200 mM NaCl, pH 8.5; immunoblot, Elution:FT ratio normalised to the bait
[4] = molecular target: rhodamine-labelled SemD (SemD^Rhod) (Chlamydia pneumoniae); assay: recruitment to giant unilamellar vesicles (confocal microscopy); PS-containing GUVs with bound SemD^Rhod or mutSemD^Rhod (1 µg) and GFP-fused partner (1 µg) in PBS, room temperature, imaged 5-20 min; fluorescence intensity ratio of GUV perimeter to background
[5] = molecular target: SNX9-SH3GFP; assay: GUV membrane recruitment assay, confocal fluorescence quantification; settings: PS-containing GUVs, read off a plot

BR-GBD fused to GFP (BR-GBD_(GFP-His)) (Rattus norvegicus), sequence (O08816 142-273): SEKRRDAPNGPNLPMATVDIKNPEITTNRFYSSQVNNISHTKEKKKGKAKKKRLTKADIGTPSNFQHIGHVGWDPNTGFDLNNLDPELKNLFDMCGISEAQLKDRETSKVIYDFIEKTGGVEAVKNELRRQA
BR-GBDΔGFP (lacking the BR domain), sequence (O08816 other isoform, or with tags, fused parts or gaps mutant): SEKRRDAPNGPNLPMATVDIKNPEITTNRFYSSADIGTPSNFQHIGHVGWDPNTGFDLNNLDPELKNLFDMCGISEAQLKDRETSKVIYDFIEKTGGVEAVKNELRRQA
BR-GBD fused to GFP (BR-GBD_(GFP-His)), sequence (O08816 142-273): as the sequence (O08816 142-273) above
N-WASP BR-GBD_(142-273) (Rattus norvegicus), sequence (O08816 142-273): as above

SemDΔAPH_(67-382) (domain or fragment) showed a normalised Elution:FT ratio (with equimolar Cdc42 (GppNHp)) [1] of 100%, a stoichiometry N [2] of 1 and a normalised Elution:FT ratio [3] of 100%.
“BR-GBD fused to GFP (BR-GBD_(GFP-His)) (from UniProt O08816 142-273) (domain or fragment)” showed a fluorescence intensity ratio (GUV perimeter to background) [4] of 44.5 fold.
“BR-GBDΔGFP (lacking the BR domain) (from UniProt O08816 142-273) (domain or fragment)” gave a fold lower fluorescence intensity ratio than BR-GBDGFP (after 20 min) [4] greater than 18 fold.
“rhodamine-labelled SemD (SemD^Rhod) R91V; P92A; R94V; P95A; P97V; P98A; P99V; P100A; R117V; P119A; P121V; P122A” was tested, and the response ([5]; 5 min, parent: est. 950) was 1.1 and the response ([5]; 20 min, parent: est. 830) was 1.1.
